Experiments:
human IL5 [1] = molecular target: T1, human IL5 (human, UniProt P05113 20-134, biotinylated (IL5-biotin) in Examples 2, 5, 6, 9 and 11; site not stated); assay: ELISA
human IL5 [2] = molecular target: T1, human IL5; assay: flow cytometry blocking IL5/IL5R
human IL5 [3] = molecular target: T1, human IL5; assay: BLI
human IL5 [4] = molecular target: T1, human IL5; assay: flow

| Binder | EC50 (human IL5 [1]) [µg/mL] | IC50 (human IL5 [2]) [µg/mL] | Kd (human IL5 [3]) [nM] | IC50 (human IL5 [4]) [µg/mL] |
| --- | --- | --- | --- | --- |
| Nb21 (VHH) VHH: QVQLQESGGGSAQAGGSLKLSCVVSGYPYSGDYCMGWFRQAPGKEREGVAAFYTGGGSTYYADSVKGRFTTSQDNATSTFHLQMNSLKPEDTATYYCAADPWSVYGGSCGVKDPNPKAFNYWGQGTQVTVSS | 0.0357 | 1.57 | 0.629 |  |
| HuNb21-Fc (antibody, V domains shown) VH: EVQLQESGGGLVQPGGSLRLSCAASGYPYSGDYCMGWFRQAPGKEREGVAAFYTGGGSTYYADSVKGRFTISRDNSKNTLYLQMNSLRAEDTAVYYCAADPWSVYGGSCGVKDPNPKAFNYWGQGTLVTVSS |  |  |  | 5.96 |
| Nb92 (VHH) VHH: QVQLQESGGGLVQPGGSLRLSCAASGFTFSNYYMSWVRQAPGKGLEWVSSISSDGSNTYYEDSVKGRFTISRDNANNTLYLQMNSLKSEDTALYHCATDLYDDSWYDHWGQGTQVTVSS | 0.0432 | 2.29 | 0.385 |  |
| Nb25 (VHH) VHH: QVQLQESGGGSVQAGGSLRLSCAASEYTYSRYCMGWFRQVPGKEREGVATIDSDGSTSYADSVKGRFTISKDNAKNTLYLQMNSLKPEDTAMYYCAARYFYIATTGLRPCGEYEYNYWGQGTQVTVSS | 0.0427 | 2.62 | 0.491 |  |
| Nb66 (VHH) VHH: QVQLQESGGGSVQAGGSLRLSCAASGYTVSSNMGWFRQAPGKEREGVAAIYPDGATYYADSVKGRFTISQDNAENTVYLQMNSLKPEDTAMYYCAADLAFNGLGTLALHGYWGQGTQVTVSS | 0.0327 | 1.17 | < 0.001 |  |
| HuNb66-Fc (antibody, V domains shown) VH: EVQLQESGGGLVQPGGSLRLSCAASGYTVSSNMGWFRQAPGKEREGVAAIYPDGATYYADSVKGRFTISRDNSENTLYLQMNSLRAEDTAMYYCAADLAFNGLGTLALHGYWGQGTLVTVSS |  |  |  | 5.73 |

From US20230399395A1 (published 2023)
